Reverse-splicing fitness data for 83 variants are collected here from the RNAGym collection of RNA variant scans (doi:10.1093/molbev/msab373).

First the molecules themselves.
B1: Azoarcus group I ribozyme (parent)
chain: GUGCCUUGCGCCGGGAAACCACGCAAGGGAUGGUGUCAAAUUCGGCGAAACCUAAGCGCCCGCCCGGGCGUAUGGCAACGCCGAGCCAAGCUUCGGCGCCUGCGCCGAUGAAGGUGUAGAGACUAGACGGCACCCACCUAAGGCAAACGCUAUGGUGAAGGCAUAGUCCAGGGAGUGGCGAAAGUCACACAAACCGG

In this data set the parent is B1. As to the kind of experiment: reverse-splicing fitness (ratio to wild type); higher = more active; in vitro selection; Mg2+ level not given. In a few lines:
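An in vitro group I ribozyme library with randomized positions was T7-transcribed and gel-purified. In triplicate, 10 pmol RNA in EPPS pH 7.5 was reacted with 50 pmoles of a 30-nt RNA substrate for 1 h at 37 °C across several added MgCl2 levels (1–48 mM), then stopped with EDTA. Products were reverse transcribed from a substrate-complementary primer, PCR-amplified and sequenced (HiSeq 4000). Fitness is a variant's read proportion after selection over that before, normalised to wild type.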
Turning to C82U A111C A120C A145G C169G U176A, the reverse-splicing fitness is 0.0195.

As for C82U A111C A120C A145G C169G U176C, the reverse-splicing fitness is 0.0254.

C82U A111C A120C A145G C169G U176G: the reverse-splicing fitness stood at 0.0058.

As to C82U A111C A120G A145C C150U U176C, the reverse-splicing fitness worked out at 0.00988.

C82U A111C A120G A145C C150U U176G: the reverse-splicing fitness is 0.00354.

For the variant C82U A111C A120G A145C C150U U176A, the reverse-splicing fitness was found to be 0.00933.

For the variant C82U A111C A120C A145U C150G C169G, the reverse-splicing fitness was 0.00628.

With C82U A111C A120C A145U C150G C169A, the reverse-splicing fitness was found to be 0.00863.

On to C82U A111C A120C A145U C150G C169U, for which the reverse-splicing fitness came to 0.00844.

Take C82U A111C A120G A145G C169A: the reverse-splicing fitness stood at 0.0105.

Take C82U A111C A120G A145G C169U: the reverse-splicing fitness worked out at 0.00883.

As to C82U A111C A120G A145G C169G, the reverse-splicing fitness was found to be 0.00926.

For the variant C82U A111C A120C A145U C150U U176C, the reverse-splicing fitness was found to be 0.0144.

For the variant C82U A111C A120C A145U C150U U176A, the reverse-splicing fitness came out at 0.0105.

For the variant C82U A111C A120C A145U C150U U176G, the reverse-splicing fitness was determined as 0.00604.

With C82U A111C A120C C150G C169G, the reverse-splicing fitness was 0.00626.

With C82U A111C A120C C150G C169A, the reverse-splicing fitness was 0.00879.

Take C82U A111C A120C C150G C169U: the reverse-splicing fitness turned out to be 0.00884.

Regarding C82U A111C A120C A145G C150G C169U, the reverse-splicing fitness turned out to be 0.00816.

Take C82U A111C A120C A145G C150G C169G: the reverse-splicing fitness amounted to 0.00708.

As for C82U A111C A120C A145G C150G C169A, the reverse-splicing fitness came to 0.0079.

As to C82U A111C A120C A145G C150U U176G, the reverse-splicing fitness was determined as 0.00635.

For C82U A111C A120C A145G C150U U176C, the reverse-splicing fitness was found to be 0.0186.

On to C82U A111C A120C A145G C150U U176A, for which the reverse-splicing fitness was determined as 0.0113.

In the case of C82U A111C A120C A145G C150G C169G U176G, the reverse-splicing fitness was found to be 0.00542.

As for C82U A111C A120C A145G C150G C169G U176C, the reverse-splicing fitness stood at 0.011.

Consider C82U A111C A120C A145G C150G C169G U176A, for which the reverse-splicing fitness was found to be 0.00967.

Turning to C82U A111C A120C A145U C169G U176C, the reverse-splicing fitness came out at 0.0132.

As to C82U A111C A120C A145U C169G U176A, the reverse-splicing fitness is 0.013.

C82U A111C A120C A145U C169G U176G: the reverse-splicing fitness amounted to 0.00515.

Consider C82U A111C A120G A145C C150G C169U U176G, for which the reverse-splicing fitness is 0.0039.

As to C82U A111C A120G A145C C150G C169U U176C, the reverse-splicing fitness turned out to be 0.00897.

For the variant C82U A111C A120G A145C C150G C169U U176A, the reverse-splicing fitness amounted to 0.00949.

Regarding C82U A111C A120G A145C C150A C169A, the reverse-splicing fitness amounted to 0.00641.

For C82U A111C A120G A145C C150A C169G, the reverse-splicing fitness was found to be 0.00682.

As to C82U A111C A120G A145C C150A C169U, the reverse-splicing fitness came out at 0.00688.

C82U A111C A120C C150G: the reverse-splicing fitness was 0.00785.

As to C82U A111C A120C C150A, the reverse-splicing fitness came out at 0.00985.

As to C82U A111C A120C C150U, the reverse-splicing fitness was 0.0192.

In the case of C82U A111C A120C C150U C169G, the reverse-splicing fitness turned out to be 0.0078.

As to C82U A111C A120C C150U C169U, the reverse-splicing fitness turned out to be 0.0109.

Consider C82U A111C A120C C150U C169A, for which the reverse-splicing fitness was determined as 0.00816.

For the variant C82U A111C A120G A145C C169A, the reverse-splicing fitness worked out at 0.0073.

Turning to C82U A111C A120G A145C C169G, the reverse-splicing fitness is 0.00924.

As for C82U A111C A120G A145C C169U, the reverse-splicing fitness was found to be 0.007.

For the variant C82U A111C A120G A145C C150A U176C, the reverse-splicing fitness worked out at 0.00967.

Regarding C82U A111C A120G A145C C150A U176A, the reverse-splicing fitness is 0.00897.

For the variant C82U A111C A120G A145C C150A U176G, the reverse-splicing fitness is 0.00348.

Turning to C82U A111C A120G A145G C150U C169A U176A, the reverse-splicing fitness worked out at 0.0136.

As for C82U A111C A120G A145G C150U C169A U176C, the reverse-splicing fitness was 0.0142.

Regarding C82U A111C A120G A145G C150U C169A U176G, the reverse-splicing fitness is 0.00542.

For the variant C82U A111C A120G, the reverse-splicing fitness was 0.0151.

Regarding C82U A111C A120C A145U C150U C169G, the reverse-splicing fitness was 0.00745.

For C82U A111C A120C A145U C150U C169U, the reverse-splicing fitness was 0.0107.

With C82U A111C A120C A145U C150U C169A, the reverse-splicing fitness was 0.00892.

In the case of C82U A111C A120G A145C C169A U176A, the reverse-splicing fitness is 0.00788.

As for C82U A111C A120G A145C C169A U176G, the reverse-splicing fitness worked out at 0.00336.

As to C82U A111C A120G A145C C169A U176C, the reverse-splicing fitness stood at 0.00533.

Turning to C82U A111C A120G A145C U176C, the reverse-splicing fitness is 0.0128.

As to C82U A111C A120G A145C U176G, the reverse-splicing fitness was 0.00386.

Take C82U A111C A120G A145C U176A: the reverse-splicing fitness was 0.0119.

For the variant C82U A111C A120C A145G C150A U176A, the reverse-splicing fitness turned out to be 0.00976.

With C82U A111C A120C A145G C150A U176C, the reverse-splicing fitness turned out to be 0.0208.

In the case of C82U A111C A120C A145G C150A U176G, the reverse-splicing fitness turned out to be 0.00689.

As for C82U A111C A120C A145G C150U C169U, the reverse-splicing fitness amounted to 0.012.

As for C82U A111C A120C A145G C150U C169G, the reverse-splicing fitness was 0.00807.

Consider C82U A111C A120C A145G C150U C169A, for which the reverse-splicing fitness stood at 0.00905.

For C82U A111C A120G A145G C169U U176G, the reverse-splicing fitness worked out at 0.00411.

With C82U A111C A120G A145G C169U U176A, the reverse-splicing fitness was determined as 0.0161.

As for C82U A111C A120G A145G C169U U176C, the reverse-splicing fitness was 0.0125.

For C82U A111C A120C A145G C150U C169U U176C, the reverse-splicing fitness amounted to 0.0139.

For C82U A111C A120C A145G C150U C169U U176A, the reverse-splicing fitness was 0.0156.

As for C82U A111C A120C A145G C150U C169U U176G, the reverse-splicing fitness was 0.00546.

For C82U A111C A120G A145C C150G U176G, the reverse-splicing fitness was determined as 0.00269.

With C82U A111C A120G A145C C150G U176A, the reverse-splicing fitness was 0.00659.

For C82U A111C A120G A145C C150G U176C, the reverse-splicing fitness amounted to 0.0106.

With C82U A111C A120C A145G C150G C169U U176G, the reverse-splicing fitness was determined as 0.007.

For the variant C82U A111C A120C A145G C150G C169U U176A, the reverse-splicing fitness came out at 0.0111.

Regarding C82U A111C A120C A145G C150G C169U U176C, the reverse-splicing fitness is 0.0122.

C82U A111C A120G A145U C150A U176A: the reverse-splicing fitness is 0.0119.

Take C82U A111C A120G A145U C150A U176C: the reverse-splicing fitness was 0.0144.

Regarding C82U A111C A120G A145U C150A U176G, the reverse-splicing fitness stood at 0.00424.

For C82U A111C A120G A145G C150G C169G U176A, the reverse-splicing fitness amounted to 0.00921.
